Test results reported in patent US20170010270A1 (Chugai, published 2017).

Key:
[1] = biological target: T1, AW2, C-terminally His-tagged recombinant product of positions 1 to 196 of GPC3 (human, UniProt P51654 25-196); experiment: Western blot of CHO cell pellets, reducing
T1 construct: Expressed in CHO cells; cell pellets used in reducing Western blot; Construct is stated from position 1; also called AW2 (1-196); not shown: C-terminal His tag

[2] = biological target: T2, AW3, C-terminally His-tagged recombinant product of positions 1 to 218 of GPC3 (human, UniProt P51654 25-218); experiment: Western blot of CHO cell pellets, reducing
T2 construct: Expressed in CHO cells; cell pellets used in reducing Western blot; Construct is stated from position 1; not shown: C-terminal His tag

[3] = biological target: T3, GPC3 peptide, amino acid position 321-350 (SEQ ID NO: 17) (human); experiment: ELISA on immobilised peptide, antibody at 2 µg/mL
T3 construct: synthetic 30-residue peptide of GPC3
T3 peptide: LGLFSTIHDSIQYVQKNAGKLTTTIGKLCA
Description: In order to identify more detailed epitopes for the antibodies, the amino acid sequence of GPC3 was divided into peptides of 30 residues containing 10-residue overlaps, and the corresponding peptides were synthesized (SEQ ID NOs: 1 to 29 in Table 2). Each peptide thus synthesized was dissolved at a concentration of 1 mg/mL in dimethyl sulfoxide and then diluted to 1 μg/mL with PBS. The diluted peptide solution was added at 70 μL/well to a 96-well plate and immobilized thereon at room temperature for 1 hour. After removal of unimmobilized peptides, 20% Blocking-one (Nacalai Tesque, Inc.) was added thereto as a blocking buffer solution at 200 μL/well, and the plate was blocked overnight. After removal of the blocking buffer solution, each well was washed with TBS-T three times, and each antibody diluted to 2 μg/mL with a blocking buffer was then added thereto at 70 μL/well. One hour later, the antibody was removed, and each well was washed three times by the addition of TBS-T at 200 μL/well. An HRP-bound anti-mouse antibody was added at 70 μL/well to each well and reacted therewith for 1 hour. […] The reaction was terminated by the addition of 1% SDS at 70 μL/well, and the absorbance at 405 nm was measured using a plate reader.

T1 sequence (P51654 25-196): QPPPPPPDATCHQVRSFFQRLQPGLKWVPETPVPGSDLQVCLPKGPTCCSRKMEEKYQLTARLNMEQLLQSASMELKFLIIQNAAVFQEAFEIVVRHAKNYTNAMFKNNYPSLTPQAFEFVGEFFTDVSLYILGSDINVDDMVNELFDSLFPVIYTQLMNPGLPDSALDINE
T2 sequence (P51654 25-218): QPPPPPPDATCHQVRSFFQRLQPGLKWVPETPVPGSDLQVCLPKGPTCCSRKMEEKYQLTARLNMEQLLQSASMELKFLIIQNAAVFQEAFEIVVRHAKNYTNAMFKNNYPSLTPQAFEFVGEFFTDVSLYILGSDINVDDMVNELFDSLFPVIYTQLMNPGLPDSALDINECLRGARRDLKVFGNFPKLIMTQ

B1: GT30 antibody (antibody, V domains shown)
VH: QVQLQQSGAELARPGASVKLSCRASGYTFTSYGISWMMQRTGQGLEWIGEIYPRSGITYYNEKFKGKATLTADKSSSTAYMQLSSLTSEDSAVYFCARDVSDGYLFPYWGQGTLVTVSA
VL: DIQMTQSPASLSASVGETVTITCRTSENIYSYLAWYQQKQGKSPQLLVYNAKTLPEGVPSRFSGSGSGTQFSLKINSLQPEDFGSYYCQHHYGTPPTFGGGTKLEIKR
Question: What does the source list for B1?
Answer: binding result [1]: no binding; binding result [2]: no binding; binding result [3]: binds
